From the Human Domainome abundance scans (Beltran et al. 2025)
± gives the uncertainty stated by the source.

B1: Far upstream element-binding protein 1, residues 98 to 169; numbered along this chain, Q96AE4 (parent)
chain: RSVMTEEYKVPDGMVGFIIGRGGEQISRIQQESGCKIQIAPDSGGLPERSCMLTGTPESVQSAKRLLDQIVE

Variants of: B1
Test: abundance fitness (aPCA) (normalised: wild type 0, dead -1); higher = more abundant; growth selection in yeast, the domain comes from the species named
Settings: Homo sapiens

Abundance fitness, by site and new letter:
V3: F -0.073 ± 0.049, G -0.086 ± 0.023, H -0.043 ± 0.041, I 0.06 ± 0.037, K 0.03 ± 0.035, L -0.047 ± 0.029, M 0.017 ± 0.036, N -0.001 ± 0.043, P -0.092 ± 0.033, Q -0.004 ± 0.034, S -0.087 ± 0.027, T -0.005 ± 0.031, W -0.084 ± 0.03, Y 0.003 ± 0.041
M4: A -0.07 ± 0.027, C 0.01 ± 0.032, D -0.079 ± 0.036, F -0.001 ± 0.035, G -0.133 ± 0.023, H -0.074 ± 0.045, I 0.015 ± 0.035, K -0.053 ± 0.034, L -0.033 ± 0.025, N -0.027 ± 0.037, P -0.245 ± 0.032, Q -0.085 ± 0.03, R -0.165 ± 0.023, S -0.135 ± 0.028, T -0.06 ± 0.031, W -0.165 ± 0.03, Y -0.007 ± 0.041
T5: A 0 ± 0.028, C -0.072 ± 0.036, D -0.149 ± 0.04, E 0.009 ± 0.03, F -0.006 ± 0.046, G -0.101 ± 0.024, H -0.055 ± 0.037, I -0.037 ± 0.038, L -0.11 ± 0.026, M -0.012 ± 0.034, N -0.063 ± 0.041, P -0.301 ± 0.032, Q -0.016 ± 0.033, R -0.012 ± 0.023, S -0.01 ± 0.026, V -0.049 ± 0.025, W -0.138 ± 0.029, Y -0.096 ± 0.046
E6: A -0.14 ± 0.027, C -0.085 ± 0.037, D -0.104 ± 0.04, F -0.081 ± 0.039, G -0.092 ± 0.023, H -0.081 ± 0.046, I -0.07 ± 0.05, K -0.01 ± 0.032, L -0.033 ± 0.026, M -0.01 ± 0.034, N -0.177 ± 0.048, P -0.625 ± 0.039, Q 0.054 ± 0.032, R -0.02 ± 0.023, T 0.029 ± 0.03, W -0.048 ± 0.027, Y -0.053 ± 0.045
E7: A -0.085 ± 0.3, C 0.061 ± 0.11, F -0.153 ± 0.23, G -0.116 ± 0.14, L -0.031 ± 0.32, M -0.281 ± 0.25, T -0.031 ± 0.21, V -0.106 ± 0.14, W -0.054 ± 0.17
Y8: A -0.221 ± 0.03, C -0.297 ± 0.054, D -0.688 ± 0.057, E -0.535 ± 0.039, F -0.013 ± 0.047, G -0.608 ± 0.03, H 0.024 ± 0.045, I -0.035 ± 0.044, K -0.127 ± 0.039, L -0.059 ± 0.03, M -0.104 ± 0.037, N -0.426 ± 0.049, P -0.798 ± 0.053, Q -0.2 ± 0.036, R -0.216 ± 0.026, T -0.147 ± 0.037, V -0.069 ± 0.029, W -0.059 ± 0.033
K9: A -0.114 ± 0.024, C -0.1 ± 0.031, D -0.181 ± 0.032, E -0.216 ± 0.032, F -0.033 ± 0.033, G -0.195 ± 0.023, H -0.093 ± 0.041, I -0.079 ± 0.035, L -0.06 ± 0.023, M -0.043 ± 0.031, N -0.156 ± 0.043, P -0.112 ± 0.028, Q -0.033 ± 0.031, R -0.053 ± 0.022, S -0.108 ± 0.024, T -0.091 ± 0.027, V -0.098 ± 0.023, W -0.084 ± 0.026, Y -0.084 ± 0.037
V10: C -0.078 ± 0.034, D -0.389 ± 0.038, E -0.628 ± 0.04, F -0.091 ± 0.038, G -0.304 ± 0.024, H -0.502 ± 0.046, K -0.584 ± 0.05, L -0.018 ± 0.025, M 0.008 ± 0.034, N -0.48 ± 0.055, P -0.265 ± 0.032, Q -0.581 ± 0.037, R -0.491 ± 0.026, S -0.382 ± 0.028, W -0.193 ± 0.03, Y -0.198 ± 0.039
P11: A -0.081 ± 0.025, C -0.133 ± 0.033, D -0.052 ± 0.034, E -0.067 ± 0.031, F -0.206 ± 0.046, G -0.138 ± 0.025, H -0.162 ± 0.041, I -0.159 ± 0.038, L -0.102 ± 0.025, M -0.136 ± 0.032, N -0.125 ± 0.041, Q -0.099 ± 0.032, R -0.074 ± 0.023, S -0.112 ± 0.025, T -0.124 ± 0.028, V -0.17 ± 0.026, W -0.185 ± 0.03, Y -0.127 ± 0.042
D12: A 0.019 ± 0.026, C -0.057 ± 0.038, E 0.001 ± 0.03, F -0.066 ± 0.047, G -0.049 ± 0.026, H -0.038 ± 0.047, I -0.038 ± 0.051, K -0.068 ± 0.036, L -0.064 ± 0.026, M -0.067 ± 0.037, N 0.032 ± 0.041, P -0.009 ± 0.028, Q -0.027 ± 0.031, R -0.028 ± 0.023, S -0.045 ± 0.026, V -0.041 ± 0.027, W -0.164 ± 0.032, Y -0.045 ± 0.045
G13: A -0.01 ± 0.026, D 0 ± 0.034, E 0.041 ± 0.032
